According to PMC5356271 (2017):

B1: HIV-1 Vif, wild type [HIV-1] / Flag-CBFβ (core-binding factor β), wild type [not stated] (parent complex)
chain 1: not shown
chain 2: MPRVVPDQRSKFENEEFFRKLSRECEIKYTGFRDRPHEERQARFQNACRDGRSEIAFVATGTNLSLQFFPASWQGEQRQTPSREYVDLEREAGKVYLKAPMILNGVCVIWKGWIDLQRLDGMGCLEFDEERAQQEDALAQQAFEEARRRTREFEDRDRSHREEMEVRVSQ

Variants of: B1
Test: co-immunoprecipitation (Flag IP) with immunoblot quantification; 293T cells treated with CBFβ-specific siRNA; MG132 (5 μM) for 16-h; read off a plot

| Variant | percent of parent [% WT CBFβ] |
| --- | --- |
| chain 2 I55A | ~68 |
| chain 2 F68A | ~76 |
